The target of series [1] is T1, Mycobacterium smegmatis topoisomerase I (msTopoI) (Mycobacterium smegmatis, UniProt A0R5D9 A0R5D9:2-936).
T1 sequence: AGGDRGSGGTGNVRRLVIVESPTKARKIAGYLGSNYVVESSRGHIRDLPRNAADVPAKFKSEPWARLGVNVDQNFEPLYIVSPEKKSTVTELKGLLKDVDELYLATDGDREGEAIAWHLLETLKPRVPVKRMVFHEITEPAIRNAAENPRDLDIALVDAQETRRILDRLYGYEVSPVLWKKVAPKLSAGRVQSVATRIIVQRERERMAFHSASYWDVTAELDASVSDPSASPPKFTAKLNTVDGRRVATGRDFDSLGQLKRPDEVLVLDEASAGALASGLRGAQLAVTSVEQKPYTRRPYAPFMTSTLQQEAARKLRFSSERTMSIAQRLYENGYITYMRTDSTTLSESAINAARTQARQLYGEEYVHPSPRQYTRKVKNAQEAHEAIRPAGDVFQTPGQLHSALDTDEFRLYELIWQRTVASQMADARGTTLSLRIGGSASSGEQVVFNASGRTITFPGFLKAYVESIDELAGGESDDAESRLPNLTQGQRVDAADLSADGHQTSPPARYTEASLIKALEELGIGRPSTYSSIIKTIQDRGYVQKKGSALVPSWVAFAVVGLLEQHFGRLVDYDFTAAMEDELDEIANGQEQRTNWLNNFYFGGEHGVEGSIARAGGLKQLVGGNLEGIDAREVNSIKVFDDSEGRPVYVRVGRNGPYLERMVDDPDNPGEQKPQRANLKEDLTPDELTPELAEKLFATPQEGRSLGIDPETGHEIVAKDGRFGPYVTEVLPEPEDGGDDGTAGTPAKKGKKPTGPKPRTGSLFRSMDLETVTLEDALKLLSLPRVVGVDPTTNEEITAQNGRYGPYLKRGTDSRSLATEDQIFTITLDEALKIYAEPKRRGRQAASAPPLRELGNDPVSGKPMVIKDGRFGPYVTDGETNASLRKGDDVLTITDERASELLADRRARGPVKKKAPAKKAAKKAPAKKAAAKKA
Nature of the series: ligation of SEQ:16 oligo to substrate; binding in 1 mM EDTA, 300 mM NaCl, 37 C, then 5 mM MgCl2; no numeric result given. On the procedure:
Prepare a solution containing msTopol as well as 10 mM Tris-HCl (pH 7.5), 1 mM EDTA, and 300 mM NaCl. Add 5 μL to each printed area (see previous section). Incubate for 1 h at 37° C. in humidity chamber. Wash 3×5 minutes in wash buffer 4. To each printed are, add 5 μL of ligation mixture: 2 μM oligonucleotide ([Btn]CAGTGAGCGTCTGGCTGAAGCTTCCGCT; SEQ ID No: 16); 300 mM NaCl; 1 mM Tris-HCl (pH 7.5); 5 mM MgCl₂. Incubate at 37° C. for 1 h in humidity chamber. Wash for 1 min in wash buffer 2, 1 min in wash buffer 3, and 1 min in 96% ethanol. Let the slide air-dry.

The next series has as its target HIV integrase (Human immunodeficiency virus, UniProt P04585 P04585:1148-1435). Nature of the series: integration of LTR into dsDNA SEQ:12/SEQ:13; MES pH 6.2, 200 mM KCl, 10 mM MnCl2, 10 mM DTT, 37 C. As to conditions: tags: His-tag (pTrcHis), E. coli BL21.

Data on two molecules can be found in patent publication US20170137895, “METHODS OF IDENTIFYING ENZYMES AND MICROORGANISMS” (ZYMONOSTICS APS, published 2017).

In the case of CAGTGAGCGAGCTTCCGCTTGACATCCCAATAGTTTCTCTTC (ssDNA, 3' amino-C6, immobilised on CodeLink slide) [msTopoI substrate], the binding result in series [1] was “binds”.

B1: HIV LTR substrate (dsDNA)
DNA 1: TTTAGTCAGTGTGGAAAATCTCTAGCAGT
DNA 2: ACTGCTAGAGATTTTCCACACTGACTAAA
modifications: 5' amino-C6-T on both strands, SEQ:6 strand immobilised
As for B1, the binding result in the series with HIV integrase is “binds”.
